Results on one molecule are retold here after patent US20090255014A1 (HELMHOLTZ ZENTRUM F R INFEKTIONSFORSCHUNG, published 2009).

The experiment addresses T1, native Cpn10 of Oleispira antarctica (Oleispira antarctica, UniProt Q8KM31 1-97).
T1 construct: Co-chaperonin; also called co-chaperonin Cpn10; co-chaperonin
T1 sequence: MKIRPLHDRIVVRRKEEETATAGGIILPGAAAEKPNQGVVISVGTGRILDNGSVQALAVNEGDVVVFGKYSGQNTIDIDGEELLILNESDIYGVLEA
As to the kind of experiment: conclusion from in vitro refolding of denatured mtMDH with Cpn10 and ATP. An excerpt:
The behaviour of the stabilized single ring mutant led to the conclusion that at the low temperature, the co-chaperonin Cpn10 could bind even to the heptameric conformation, whereas at elevated temperature presumably Cpn10 could not be released from this heptameric single ring.

B1: stabilized single ring mutant Glu461Ala/Ser463Ala/Val464Ala of Cpn60 of O. antarctica (other)
chain: MAAKDVLFGDSARAKMLVGVNILADAVRVTLGPKGRNVVIEKSFGAPIITKDGVSVAREIELKDKFENMGAQMVKEVASQANDQAGDGTTTATVLAQAIISEGLKSVAAGMNPMDLKRGIDKATAAVVAAIKEQAQPCLDTKAIAQVGTISANADETVGRLIAEAMEKVGKEGVITVEEGKGLEDELDVVEGMQFDRGYLSPYFINNQEKMTVEMENPLILLVDKKIDNLQELLPILENVAKSGRPLLIVAEDVEGQALATLVVNNLRGTFKVAAVKAPGFGDRRKAMLQDLAILTGGQVISEELGMSLETADPSSLGTASKVVIDKENTVIVDGAGTEASVNTRVDQIRAEIESSTSDYDIEKLQERVAKLAGGVAVIKVGAGSEMEMKEKKDRVDDALHATRAAVEEGVVAGGGVALIRALSSVTVVGDNEDQNVGIALALRAMEAPIRQIAGNAGAAGAAVVDKVKSGTGSFGFNASTGEYGDMIAMGILDPAKVTRSSLQAAASIAGLMITTEAMVADAPVEEGAGGMPDMGGMGGMGGMPGMM
notes: also called triple mutant Glu461Ala/Ser463Ala/Val464Ala
For B1, the binding result is listed as “binds”.
